# Results: article PMC3276249 (Molecular Microbiology, 2012)
# B1: Bcam0581 of Burkholderia cenocepacia J2315, hexahistidine-tagged (enzyme)
# chain: MQLQSHPACRPFYEAGELSQLTAFYEEGRNVMWMMLRSEPRPCFNQQLVTDIIHLARVARDSGLTFDFWVTGSLVPELFNVGGDLSFFVDAIRSGRRDQLMAYARSCIDGVYEIYTGFGTGAISIAMVEGSALGGGFEAALAHHYVLAQKGVKLGFPEIAFNLFPGMGGYSLVARKANRGLAESLIATGEAHAAEWYEDCGLIDETFDAGDAYLATRTFIDVTKPKLNGIRAMLRARERVFQLSRSELMDITEAWVHAAFTIEPKDLAYMERLVMLQNRRVSKLRTV
# Key:
# cross-linking = molecular target: the molecule itself; assay: cross-linking
# SEC = molecular target: the molecule itself; assay: SEC
protein,measurement,setting,value
B1,stoichiometry N,cross-linking,~3
same,stoichiometry N,SEC,3
